Here are results for 5 substances from paper PMC8026774.

The target of assay [1] is MOR-1A-PK (mouse).
In assay [2] the target is MOR-TR-PK (mouse).
Assay [3] addresses MOR-1B1-PK (mouse).
Assay [4] concerns the target MOR-1E-PK (mouse).
For assay [5], the target named is MOR-1C-PK (mouse).
Assay [6] concerns the target MOR-1O-PK (mouse).
Assay [7] addresses MOR-1-PK (mouse) (UniProt P42866).
For assay [8], the target named is MOR-1O-PK (mouse). The assay can be described thus: radioligand binding.
Assay [9] has as its target MOR-1O (untagged) (mouse). The assay can be described thus: radioligand binding.

Turning to DAMGO (peptide), the [35S]GTPγS binding (G-protein activation), EC50 in assay [1] was 39 nM; in assay [2], 48 nM; in [3] it was 110 nM; in [4], 29 nM; in assay [5], 195 nM.
Take [Met^5]enkephalin-Arg^6,Phe^7 (peptide): the [35S]GTPγS binding (G-protein activation), EC50 stood at 13 nM in assay [1]; 73 nM in [2]; 82 nM in assay [6]; 16 nM in [7]; 33 nM in [3]; 69 nM in assay [5].
For the substance endomorphin-1 (peptide), the [35S]GTPγS binding (G-protein activation), EC50 in assay [1] is 86 nM; in assay [2] it was 107 nM; in [6], 282 nM; in assay [7], 44 nM; in [3], 113 nM; in assay [4] it was 42 nM. This substance returned a [35S]GTPγS binding (G-protein activation), EC50 in assay [5] of 116 nM.
Turning to endomorphin-2 (peptide), the [35S]GTPγS binding (G-protein activation), EC50 in [1] is 131 nM; in [2] it was 55 nM; in [6] it was 335 nM; in [7] it was 90 nM; in assay [3], 367 nM; in assay [4], 101 nM. In assay [5], the [35S]GTPγS binding (G-protein activation), EC50 stood at 111 nM.
The Ki is the dissociation constant of the complex between target and ligand, obtained from inhibition or displacement. High values mean weaker binding, low ones tighter binding. As for “β-endorphin (from UniProt P01189) (peptide)”, the Ki in [8] was found to be 38.2 nM; in assay [9] it was 13.3 nM. Moreover, the [35S]GTPγS binding (G-protein activation), EC50 in assay [6] is 192 nM.
